# Legend:
# [1] = target: HPV18-E6 (4C-4S) version of E6 fused with His-tag (human papillomavirus type 18 (HPV18)) (UniProt P06463)
# [2] = target: HPV18-E6 (4C-4S) version of E6 fused with His-tag (human papillomavirus type 18 (HPV18)) (UniProt P06463); remark: listed apart in the source
# Chain of UniProt P06463 (P06463 whole entry, the tested form may be a part): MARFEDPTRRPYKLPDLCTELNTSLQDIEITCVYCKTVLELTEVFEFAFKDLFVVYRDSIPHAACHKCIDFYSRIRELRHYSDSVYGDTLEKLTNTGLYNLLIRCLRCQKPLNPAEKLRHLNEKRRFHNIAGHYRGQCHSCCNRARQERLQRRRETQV
substance,measurement,setting,value
untagged USP46 (from UniProt P62068 1-366) (enzyme),"deubiquitinase activity of recombinant USP46 (singly purified His-USP46, 70 nM) on the ubiquitin substrate after simple mixing with recombinant HPV-E6 (4 uM); USP46 alone 0.39 FU/min",[1],0.58 FU/min
same,deubiquitinase activity on Ub-AMC of the E6:USP46 complex purified on Ni-NTA and concentrated (USP46-UAF1 complex in the same assay: 0.83 FU/min),[2],0.78 FU/min

# Source: paper PMC8750077
